Experimental data published in patent publication US20250011456A1, “ANTIBODIES AGAINST CD14 AND USES THEREOF” (Villanelle Life Science Inc, priority 2023, published 2025).
Numbering of substitutions follows the chain as printed.

T1: recombinant human CD14 (B294801, histidine tagged) (Homo sapiens, UniProt P08571)
T1 construct: His; purchased Shanghai BaiYing Biotechnology Co., Ltd B294801 (Batch number 20200518A22)
T1 sequence (P08571 20-345): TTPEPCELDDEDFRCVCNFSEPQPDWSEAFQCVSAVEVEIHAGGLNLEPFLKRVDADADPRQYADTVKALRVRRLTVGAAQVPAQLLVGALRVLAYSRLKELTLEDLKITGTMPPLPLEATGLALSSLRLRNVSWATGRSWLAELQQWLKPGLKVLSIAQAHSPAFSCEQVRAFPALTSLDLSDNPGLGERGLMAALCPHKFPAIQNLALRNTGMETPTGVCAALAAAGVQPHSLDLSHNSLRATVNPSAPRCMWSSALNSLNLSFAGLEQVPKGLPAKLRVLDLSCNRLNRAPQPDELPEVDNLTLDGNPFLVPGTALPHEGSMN

B1: D6DD3D005: humanized anti-CD14 antibody; VH SEQ ID NO: 17, VL SEQ ID NO: 19 (antibody, V domains shown)
VH: QVQLQESGPGLVKPSETLSLTCTVSGYSITSDSAWNWIRQPPGKGLEWIGYISYSGSTSYNPSLKSRVTISRDTSKNQFSLKLSSVTAADTAVYYCVRGLRFAYWGQGTLVTVSS
VL: EIVLTQSPATLSLSPGERATLSCRASESVDSYVNSFLHWYQQKPGQAPRLLIYRASNLQSGIPARFSGSGSRTDFTLTISSLEPEDVAVYYCQQSNEDPYTFGQGTKLEIK
B2: D6DD3D003: humanized anti-CD14 antibody; VH SEQ ID NO: 9, VL SEQ ID NO: 11 (antibody, V domains shown)
VH: B1 VH with Y27G, T30S
VL: B1 VL
B3: D6DD3D006: humanized anti-CD14 antibody; VH SEQ ID NO: 21, VL SEQ ID NO: 23 (antibody, V domains shown)
VH: B1 VH with E16Q
VL: B1 VL
B4: D6DD3D011: humanized anti-CD14 antibody; VH SEQ ID NO: 41, VL SEQ ID NO: 43 (antibody, V domains shown)
VH: B1 VH with E16Q
VL: DIVLTQSPDSLAVSLGERATINCRASESVDSYVNSFLHWYQQKPGQPPKLLIYRASNLQSGVPDRFSGSGSRTDFTLTISSLQAEDVAVYYCQQSNEDPYTFGQGTKLEIK
B5: D6DD3D004: humanized anti-CD14 antibody; VH SEQ ID NO: 13, VL SEQ ID NO: 15 (antibody, V domains shown)
VH: B1 VH with V2L, Y27G, T30S
VL: B1 VL
B6: D6DD3D013: humanized anti-CD14 antibody; VH SEQ ID NO: 49, VL SEQ ID NO: 51 (antibody, V domains shown)
VH: B1 VH with Y27G, T30S
VL: DIQLTQSPSSLSASVGDRVTITCRASESVDSYVNSFLHWYQQKPGKAPKLLIYRASNLQSGVPSRFSGSGSRTDFTLTISSLQPEDVATYYCQQSNEDPYTFGQGTKLEIK
B7: D6DD3D014: humanized anti-CD14 antibody; VH SEQ ID NO: 53, VL SEQ ID NO: 55 (antibody, V domains shown)
VH: B1 VH with V2L, Y27G, T30S
VL: B6 VL
B8: D6DD3D009: humanized anti-CD14 antibody; VH SEQ ID NO: 33, VL SEQ ID NO: 35 (antibody, V domains shown)
VH: B1 VH with V2L, Y27G, T30S
VL: B4 VL
B9: D6DD3D010: humanized anti-CD14 antibody; VH SEQ ID NO: 37, VL SEQ ID NO: 39 (antibody, V domains shown)
VH: B1 VH
VL: B4 VL
B10: D6DD3D015: humanized anti-CD14 antibody; VH SEQ ID NO: 57, VL SEQ ID NO: 59 (antibody, V domains shown)
VH: B1 VH
VL: B6 VL
B11: D6DD3D016: humanized anti-CD14 antibody; VH SEQ ID NO: 61, VL SEQ ID NO: 63 (antibody, V domains shown)
VH: B1 VH with E16Q
VL: B6 VL
B12: D6DD3D008: humanized anti-CD14 antibody; VH SEQ ID NO: 29, VL SEQ ID NO: 31 (antibody, V domains shown)
VH: B1 VH with Y27G, T30S
VL: B4 VL
B13: D6DD3D012: humanized anti-CD14 antibody; VH SEQ ID NO: 45, VL SEQ ID NO: 47 (antibody, V domains shown)
VH: B1 VH with E16Q, Y27G, T30S, P41H
VL: B6 VL
B14: D6DD3D002: humanized anti-CD14 antibody; VH SEQ ID NO: 5, VL SEQ ID NO: 7 (antibody, V domains shown)
VH: B1 VH with E16Q, Y27G, T30S, P41H
VL: B1 VL
B15: D6DD3D007: humanized anti-CD14 antibody; VH SEQ ID NO: 25, VL SEQ ID NO: 27 (antibody, V domains shown)
VH: B1 VH with E16Q, Y27G, T30S, P41H
VL: B4 VL

What follows are molecules tested against T1, recombinant human CD14 (B294801, histidine tagged) (assay: Biacore 8K kinetic and affinity test of humanized antibodies (Example 8)). Conditions: Biacore 8K, KD=koff/kon, analyte B294801 0.78125-25 nM, capture 1 μg/mL.
Assay type: binding
Protocol: Experimental reagents and consumables included Protein A chip (Cytiva, 29127556). Main instruments and equipment included Biacore 8K (Cytiva), shaker (Taicang Huamei), ELISA system (Molecular Devices), centrifuge (Baiyang), ultrapure water system (Millipore), and thermostatic incubator (BLUE PARD).
The antigen used for the binding affinity measurements is B294801. This antigen is a recombinant human CD14 antigen that is histidine tagged and has a molecular weight of 36 kDa. B294801 was purchased from Shanghai BaiYing Biotechnology Co., Ltd (name: Recombinant Human CD14/His Protein; Batch number 20200518A22). D6DD3D001 is a mouse antibody, and D6DD3D002-D6DD3D0016 are humanized antibodies. The antibodies are recombinant, human (hFc Tag). Selected parameters of the experimental samples are shown in Table 8-1, with MW referring to molecular weight in kiloDaltons (kDa).
The Biacore 8K platform was used to test the kinetic and affinity properties of the antibody. The operation was carried out according to the system instructions and indications.
The equilibrium dissociation constant (KD) reflects the affinity of the antibody to the target, with a smaller value indicating a stronger affinity. KD (in units of molarity) is determined by the ratio of the dissociation rate constant (koff) and the association rate constant (kon), that is, KD=Koff/kon.
15 humanized antibodies (numbered D6DD3D002-D6DD3D0016) and 1 mouse antibody (number D6DD3D001) were tested. For the experiments, the analyte solution comprises the B294801 antigen with an analyte concentration of 0.78125 nM, 1.5625 nM, 3.125 nM, 6.25 nM, 12.5 nM, and 25 nM. The capture concentration was 1 μg/mL. In Table 8-3, the change factor is the ratio of the equilibrium dissociation constant KD of the humanized to mouse antibody, and reflects the change in affinity after humanization.

Row | Kd | Molecule
1 | 0.529 nM | B1
2 | 1.62 nM | B2
3 | 0.602 nM | B3
4 | 0.639 nM | B4
5 | 1.99 nM | B5
6 | 1.61 nM | B6
7 | 1.8 nM | B7
8 | 1.89 nM | B8
9 | 0.555 nM | B9
10 | 0.532 nM | B10
11 | 0.672 nM | B11
12 | 1.57 nM | B12

Same assay, conditions: Biacore 8K, analyte B294801 0.78125-25 nM, capture 1 μg/mL

Row | koff (1:1 binding) | kon (1:1 binding) | Molecule
13 | 0.000798 s⁻¹ | 1.51e+06 M⁻¹ s⁻¹ | B1
14 | 0.00295 s⁻¹ | 1.82e+06 M⁻¹ s⁻¹ | B2
15 | 0.00293 s⁻¹ | 1.64e+06 M⁻¹ s⁻¹ | B13
16 | 0.00292 s⁻¹ | 1.69e+06 M⁻¹ s⁻¹ | B14
17 | 0.000862 s⁻¹ | 1.43e+06 M⁻¹ s⁻¹ | B3
18 | 0.00109 s⁻¹ | 1.71e+06 M⁻¹ s⁻¹ | B4
19 | 0.00326 s⁻¹ | 1.64e+06 M⁻¹ s⁻¹ | B5
20 | 0.00282 s⁻¹ | 1.76e+06 M⁻¹ s⁻¹ | B6
21 | 0.00318 s⁻¹ | 1.77e+06 M⁻¹ s⁻¹ | B7
22 | 0.00379 s⁻¹ | 2.01e+06 M⁻¹ s⁻¹ | B8
23 | 0.00105 s⁻¹ | 1.9e+06 M⁻¹ s⁻¹ | B9
24 | 0.00342 s⁻¹ | 2.11e+06 M⁻¹ s⁻¹ | B15
25 | 0.000843 s⁻¹ | 1.59e+06 M⁻¹ s⁻¹ | B10
26 | 0.000904 s⁻¹ | 1.35e+06 M⁻¹ s⁻¹ | B11
27 | 0.00329 s⁻¹ | 2.09e+06 M⁻¹ s⁻¹ | B12

Same assay, conditions: Biacore; B294801 antigen

Row | Molecule | affinity compared with the mouse antibody D6DD3D001
28 | B1 | approximately equivalent to the affinity of the antibody D6DD3D001 before humanization
29 | B9 | approximately equivalent to the affinity of the antibody D6DD3D001 before humanization
30 | B10 | approximately equivalent to the affinity of the antibody D6DD3D001 before humanization

Same assay, conditions: relative to mouse antibody D6DD3D001

Row | Change Factor (ratio of KD of the humanized to mouse antibody) | Molecule
31 | 1.09 | B1
32 | 3.34 | B2
33 | 1.24 | B3
34 | 1.32 | B4
35 | 4.10 | B5
36 | 3.32 | B6
37 | 3.71 | B7
38 | 3.90 | B8
39 | 1.14 | B9
40 | 1.10 | B10
41 | 1.39 | B11
42 | 3.24 | B12
